Kd data for one molecule are collected here from publication PMC11514473, “The transition state for coupled folding and binding of a disordered DNA binding domain resembles the unbound state” (Nucleic Acids Research, 2024).

Common to all, as to assay: stopped-flow fluorescence (koff/kon); 10 mM Mg2+; 10 mM MES pH 6.5, 150 mM NaCl, 10 mM MgCl2, 0.05% Tween-20, 25 C; NMR: 10 mM Tris-d11, 150 mM NaCl, 10 mM MgCl2, 1 mM NaN3, 5% D2O (NOE at 25 C)
Settings in all cases: protein: recombinant; tags: extra N-terminal Gly; chain copies: 2; label: 5' Alexa Fluor 488; hairpin (self-annealing, 11 bp stem, CCCC loop)

Data set [1] concerns the target T1, 285bZIP E295G (human, UniProt P16220-1 285-339, C300S;C310S;C337S;E295G).
T1 sequence: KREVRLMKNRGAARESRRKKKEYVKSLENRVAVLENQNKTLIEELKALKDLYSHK

The target of data set [2] is T2, 285bZIP E299A (human, UniProt P16220-1 285-339, C300S;C310S;C337S;E299A).
T2 sequence: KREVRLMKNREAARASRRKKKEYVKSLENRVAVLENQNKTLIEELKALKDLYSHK

The target in data set [3] is T3, 285bZIP K309G (human, UniProt P16220-1 285-339, C300S;C310S;C337S;K309G).
T3 sequence: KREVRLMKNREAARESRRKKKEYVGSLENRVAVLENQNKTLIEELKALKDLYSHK

For data set [4], the target named is T4, 285bZIP E287A (human, UniProt P16220-1 285-339, C300S;C310S;C337S;E287A).
T4 sequence: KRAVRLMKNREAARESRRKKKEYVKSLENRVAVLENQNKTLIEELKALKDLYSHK

Data set [5] has as its target T5, 285bZIP E287G (human, UniProt P16220-1 285-339, C300S;C310S;C337S;E287G).
T5 sequence: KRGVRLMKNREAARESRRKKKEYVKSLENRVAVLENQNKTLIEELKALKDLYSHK

Data set [6] deals with T6, 285bZIP E299G (human, UniProt P16220-1 285-339, C300S;C310S;C337S;E299G).
T6 sequence: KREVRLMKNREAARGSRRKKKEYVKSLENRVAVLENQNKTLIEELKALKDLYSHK

For data set [7], the target named is T7, 285bZIP E306A (human, UniProt P16220-1 285-339, C300S;C310S;C337S;E306A).
T7 sequence: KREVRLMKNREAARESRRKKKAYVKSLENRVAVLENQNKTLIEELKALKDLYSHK

In data set [8] the target is T8, 285bZIP M291A (human, UniProt P16220-1 285-339, C300S;C310S;C337S;M291A).
T8 sequence: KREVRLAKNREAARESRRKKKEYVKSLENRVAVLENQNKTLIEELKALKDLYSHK

The target in data set [9] is T9, 285bZIP M291G (human, UniProt P16220-1 285-339, C300S;C310S;C337S;M291G).
T9 sequence: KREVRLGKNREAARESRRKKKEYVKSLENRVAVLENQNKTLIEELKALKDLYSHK

The target of data set [10] is T10, 285bZIP E299A/E306A (human, UniProt P16220-1 285-339, C300S;C310S;C337S;E299A;E306A).
T10 sequence: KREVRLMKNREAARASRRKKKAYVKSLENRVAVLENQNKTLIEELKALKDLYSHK

For the molecule CCTGACGTCAGCCCCCTGACGTCAGG (structured_DNA) [AlexaFluor488-CREh], the Kd in data set [1] turned out to be 6 ± 0.4 nM; in data set [2], 0.0711 ± 0.0011 nM; in data set [3] it was 26 ± 2 nM; in data set [4], 1.89 ± 0.11 nM; in data set [5], 4.6 ± 0.6 nM; in data set [6] it was 2.72 ± 0.15 nM. The equilibrium dissociation constant (Kd) stood at 0.139 ± 0.012 nM in [7], 0.31 ± 0.03 nM in data set [8], 5.2 ± 0.7 nM in data set [9] and 0.0415 ± 0.0008 nM in [10].
